From the supplement of paper PMC6755084

Each sequence was assayed on F1*sub RNA substrate (template-directed ligation) (assay: fraction ligated after 30 min (ligated reads / total reads); higher = more ligase activity; sequences stand for … in GAGACCGCAACTGAAAAGTTGT…AGTTCTGCACGTAGAAGCAAAAGGC). Conditions: 42 °C.
How it was run: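 Oligo-pool templates underwent PCR amplification, T7 transcription and gel purification to yield ribozyme variants. Gel-separated ligated and unligated bands were converted to complementary DNA with barcoded primers and sequenced on a MiSeq, keeping core bases of quality ≥20. The ratio of ligated reads to total reads gave the fraction ligated for every variant.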

In order of rising fraction ligated:
1. TTCATTGTCGTAAACACTTTGGATGGGTTGA [3d324]  0.068
2. TTCATTGTCGTAAGACACTTTGGATGGGTTA [3d334]  0.0829
3. TTCATTTCGTAAGACACTTTGGATGGGTTGA [3d318]  0.104
4. TTCATTGTCGTAAGACACTTTGGTGGGTTGA [3d331]  0.106
5. TTCATTGCGTAAGACACTTTGGATGGGTTGA [3d319]  0.11
6. TTCATTGTGTAAGACACTTTGGATGGGTTGA [3d320]  0.137
7. TTCACTTTCGTAGACACTTTGGATGGGTTGA [3d358]  0.142
8. TTCATTGTCGTAAGAACTTTGGATGGGTTGA [3d326]  0.149
9. TTCATTGTCGTAAGACACTTTGGAGGGTTGA [3d332]  0.175
10. TTCCTTGTCGTAAGACACTTTGGATGGTTGA [3d314]  0.175
11. TTCATTGTCGTAAGCACTTTGGATGGGTTGA [3d325]  0.176
12. TTCCTTGTCGTAAGACACTTTGGAGGGTTGA [3d313]  0.186
13. TTCATTGTCGAAGACACTTTGGATGGGTTGA [3d322]  0.197
14. TTCATTGTCTAAGACACTTTGGATGGGTTGA [3d321]  0.203
15. TTCCTTGTCGTAAGACACTTTGGTGGGTTGA [3d312]  0.204
16. TTCCTTGTCGTAAGACACTTTGGATGGGTTA [3d315]  0.229
17. TTCATTGTCGTAGACACTTTGGATGGGTTGA [3d323]  0.271
18. TTCATTGTCGTAAGACACTTTGGATGGGTTG [3d335]  0.285
19. TTCACTTTCTAAGACACTTTGGATGGGTTGA [3d356]  0.36
20. TTCATTGTCGTAAGACACTTTGGATGGTTGA [3d333]  0.421
21. TTCATTGTCGTAAGACACTTGGATGGGTTGA [3d329]  0.453
22. TTCATGTCGTAAGACACTTTGGATGGGTTGA [3d317]  0.468
23. TTCATTGTCGTAAGACATTTGGATGGGTTGA [3d328]  0.5
24. TTCATTGTCGTAAGACACTTTGATGGGTTGA [3d330]  0.505
25. TTCATTGTCGTAAGACACTTTGGATGGGTTGA [2d27]  0.509
26. TTCATTGTCGTAAGACCTTTGGATGGGTTGA [3d327]  0.529
27. TTCCTTGTCGTAAGACACTTTGATGGGTTGA [3d311]  0.595
28. TTCCTTGTCGTAAGACACTTTGGATGGGTTG [3d316]  0.731
29. TTCCTTGTCGTAAGACCTTTGGATGGGTTGA [3d308]  0.737
30. TTCCTGTCGTAAGACACTTTGGATGGGTTGA [3d298]  0.746
31. TTCACTTTGTAAGACACTTTGGATGGGTTGA [3d355]  0.747
32. TTCCTTTCGTAAGACACTTTGGATGGGTTGA [3d299]  0.753
33. TTCCTTGTCGTAAGACATTTGGATGGGTTGA [3d309]  0.756
34. TTCCTTGTCGTAAGAACTTTGGATGGGTTGA [3d307]  0.765
35. TTCTTGTCGTAAGACACTTTGGATGGGTTGA [3d277]  0.765
36. TTCCTTGTCGTAGACACTTTGGATGGGTTGA [3d304]  0.77
37. TTCCTTGTCGTAAGCACTTTGGATGGGTTGA [3d306]  0.772
38. TTCCTTGTCGTAAGACACTTGGATGGGTTGA [3d310]  0.776
39. TTCCTTGTCGTAAGACACTTTGGATGGGTTGA [2d26]  0.778
40. TTCCTTGCGTAAGACACTTTGGATGGGTTGA [3d300]  0.779
41. TTCCTTGTCTAAGACACTTTGGATGGGTTGA [3d302]  0.78
42. TTCCTTGTGTAAGACACTTTGGATGGGTTGA [3d301]  0.782
43. TTCCTTGTCGTAAACACTTTGGATGGGTTGA [3d305]  0.786
44. TTCCTTGTCGAAGACACTTTGGATGGGTTGA [3d303]  0.796
